From the DeepSol protein solubility set

Test: soluble on expression in E. coli; label from the status in PepcDB or PDB records

Sequence | soluble on expression in E. coli
MGSDKIHHHHHHMNNTPANRLQPKHFTLIKAIGDLGQLSLAAGQVSMTQPAASRMLAEIERIVGAAVFLRTPKGMEATEVGAALVRRSEILLQEMREAMREVDAIKRGASGTVSVGAVTGGALGYIVPAISTLKAEARTADIYVDVAPSGTLISNLVSGQFDFVLGRIPVGVDARQFHIRHARTEEVDLIVHQSHPLANSTDLRMTDLLHFPWVMQGPGAPVRQAVENAFIDAGTTLPVDVVNTTSLLVMIAMIAASNAITPLSREVSDLLCRQTTGAGLCRLKIRRPIIVLPYHLISMKNRHMSTLAARLQDLVLQEFITR | not soluble
MGDEYMDDDEDYGFEYEDDSGSEPDVDMENQYYTAKGLRSDGKLDEAIKSFEKVLELEGEKGEWGFKALKQMIKITFGQNRLEKMLEYYRQLLTYIKSAVTKNYSEKSINAILDYISTSRQMDLLQHFYETTLDALKDAKNERLWFKTNTKLGKLFFDLHEFTKLEKIVKQLKVSCKNEQGEEDQRKGTQLLEIYALEIQMYTEQKNNKALKWVYELATQAIHTKSAIPHPLILGTIRECGGKMHLRDGRFLDAHTDFFEAFKNYDESGSPRRTTCLKYLVLANMLIKSDINPFDSQEAKPFKNEPEIVAMTQMVQAYQDNDIQAFEQIMAAHQDSIMADPFIREHTEELMNNIRTQVLLRLIRPYTNVRISYLSQKLKVSQKEVIHLLVDAILDDGLEAKINEESGMIEMPKNKKKMMVTSLVVPNAGDQGTTKSDSKPGTSSEPSTTTSVTSSILQGPPATSSCHQELSMDGLRVWAERIDSIQSNIGTRIKF | not soluble
GMELTALDKLEIMELAARFEMSLDKEDVENYLATFASDGALQGFWGIAKGKEELRQGFYAMLDTFARGKRHCSSNAIIQGNYDEATMESYLTVVNREDLNRAGSAFVKDQVRKINGKWYLILRQIEVDPSLPLLQQSQQAGANA | soluble
MLLAYIDEIGSTGAFIHPNHNRFSDSPAFGYGGFIIPEESAREFGSYFAERKKIFFRNEIPNNIDPGRWEKKGSDLLFALAINERPQNLRLLGSLISKLRKLDGHLFYYAEEKPIGTPKATNCGATEFRDREETAMRETLNRIARHADYEDSRVLVMMDQINEKSRIQRLPAMYAHILGRASEHQEMRRIVEPPMHIDSQLSTNIQFADWICSLAKRAIEYQLVEDSRYSWVSTAEALTPARGSFTYESKLRLYHRAIDDLNHSSILRPTRPLFNSKINQTLDEENRRKLEKVRAATIKEANN | not soluble
MGSDKIHHHHHHMSILTVENVSHSYGEKTILYNACFRLLKGEHVGLVGQNGIGKSTLLKILTGELIHDEGNIEWFPHVKVGFLQQHIDLQEGITIEGYLQSAFADLYVIECEMLKIAEEMNGAGEVEKLLVKYGELQTILESSNFYHIHTEVEEVAIGLGLFEIGLKKDVSKLSGGQRTKLLLGKLLLEKADVLLLDEPTNYLDTAHIEWLQSYLRLYEKAYVIISHDELFLNSITNVIFHLEGGKVKRYVGNYEKFVQSYQVQKKQLQSAYVKQQKEISQLETFIQKNKIRKAKQAKSREKVLEKMQRIEKIHPVPRSRFDFNVYEEPVSRILQAEKLRIGYSDPLCPELNLQVKKGEKIAIIGHNGIGKTTMLKTLLGQIKPLSGSISVGERVNPAYFAQEEFASETTPLEKVWAERPDMTKKEVRQALAKCGLKEEHVLKPIRLLSGGEQTKVRLCELIVKKSNVLILDEPTNHLDIETKKALQEALQRYRGTVLLVSHEPSFYEAWITKVWNIEEWNAEQYE | not soluble
MGSDKIHHHHHHMAGLRVFVSSTCYDLSVIRSQLRIFIQSLGHEPLMSDYSDLLYDPRLHTHTSCVDEVATADIVVLIVGARFGGKTVPEALAKLDFDLLKKESKSTESLIKKENLSVTQLEILKAVESGIPVFTFVDSSVWHDHALYEKNKDKPIINDISFPSIEKAETASFIFEFINFLRHRARGNSVYTFSKLQDIEDTLRRQWSSLFQKLIQEQRSKAFEAKRLDNLTEQFEDLKTAILTSIGTTNERDVARGVVRFRRLIDFVRSLGLKDHNFLIRGHHPWDELLHYAEIEKVLDAAELPEEFIFHRRNFGSRPRMFLIKNDGTFFELRTSPDFFHSLSLEWEAFMDLPEDTREIIVDALSEMRPGMGPLRYIREPFDYHVDKWIHQERLLKDIDDSDHESSHS | not soluble
MSLSSAYDRKNLEKKNRELRELNDKIGDVAKTFETLQLELYNDLIKEFSKDLTSWNATIDPDNTIRFKEPDVLFDSGKSQVKERFKVVLDDFFPRYVKILSQEKYKGDIEEIRIEGHTSSEWLNAKTLEERYLGNAALSQARAFEVLKYCFALERIKGEQDWLIKVLRANGLSFAKPLDSEEHSRRVEFRTLTRSHQKMLKILDLSKEGHHHHHH | soluble
MSLTQRIDFQTDPSRYRHWRVAYDGEIANLYMDVDEQGGLFPGYELKLNSYDLGVDIELADIVQRMRFEHPEVKVVVMQSGKDRVFCAGANIRMLGGASHAHKVNFCKFTNETRNTYEAAEADSGQKYIAAVKGACAGGGYELALACNYIMLTNDSSSSVALPEVPLLAVLPGTGGLTRVTDKRKVRRDLADVFCSVEEGVRGQRAVDWRLVDEIAPNSKFDEVVQERAREFASASVKPSGLTGIALTPLDRRFAEDGSVTYSTVEVVVEREAGRATLTISGPTDAAPDTVDALQAQGAEAWILRAARELDDAILHLRLNERRIGTLVIQTQGDGAAVAAHEALLLENRDHWLANEILQHWKRVLKRVDMTSRSLVAIVEHGSCFAGPLAELLWAVDRSYMMLEEFEGDNRPLAAITLSPGNFGTYPMGNDLSRLATRFLGTPEAVEAARARIGEALEAEEAEKLGLVTYVLDDIDWEDEVRVFLEERASFSPDAMTGMEANLRFAGPETMETRIFGRLTAWQNWIFQRPNAVGPDGALQRYGTGVRGDYDMERVEGHHHHHH | soluble
EEIFCHVYITEHSYVSVKAKVSSIAQEILKVVAEKIQYAEEDLALVAITFSGEKHELQPNDLVISKSLEASGRIYVYRKDLADTLNPFAEN | soluble
MSLLTSNLGYPRIGENREWKKALESFWANDTTEEQLLATMKELRLNHLRVQQEQEVDLIPVGDFTLYDHVLDMAVMFGIIPKRFLQQGDTPTLSTYFAMARGSKNAQACEMTKWYNTNYHYIVPELHDAAPRLTKNAPLEAYLEAKNELGIDGKPVILGPYSFVKLAKGYEEDKLQETIQSLLPLYIQVIQELVDAGARSIQVDEPSLVTSISAREMALVTRIYEQINEAIADAPLFLQTYFDAVTFYEEVVSLPVKGIGLDFVHGGAKNLEALRTFGFPEDKVLAAGIIDGRNIWISNLRERHELVHQLEQHVAKDRLVLQPSCSLLHVPVTTKREEKLDPTLLGVLAFANEKLTELHTLKQLAAGNEAEVKEALEANDDALAALEKSGWRSGAATSHNLENKKRPQSFNERRPLQEEKWQLPLLPTTTIGSFPQTKDVRRTRSLWRKGELSTVEYERTMKSYIEKWINIQEELGLDVLVHGEFERNDMVEFFGEKLDGFAFTANGWVQSYGSRCVKPPIIYGNVSFTEPMTVAETVYAQSLTDKPVKGMLTGPVTILNWSFVRDDLPLTVIAHQIAEALTHEVTALEEAGIEMIQIDEPAIREGLPLKAEDQQEYLDWAVSAFRASCAHVKATTQIHTHMCYSEFHEMIEAIDDLDADVISIETSRSHGEMISAFEKTTYEKGIGLGVYDIHSPRVPSEEEMLNVIRRALTVLPASLFWVNPDCGLKTRAEKETVAALKNMVAAARAAREELKTKAEGHHHHHH | soluble
GSPGISGGGGGIPVIDGPTQILVRDVSDTVAFVEWTPPRAKVDFILLKYGLVGGEGGKTTFRLQPPLSQYSVQALRPGSRYEVSISAVRGTNESDASSTQFTTEIDAPKNLRVGSRTATSLDLEWDNSEAEAQEYKVVYSTLAGEQYHEVLVPKGIGPTTKTTLTDLVPGTEYGVGISAVMNSKQSIPATMNARTELDSPRDLMVTASSETSISLIWTKASGPIDHYRITFTPSSGISSEVTVPRDRTSYTLTDLEPGAEYIISITAERGRQQSLESTVDAFT | soluble
PCCELITNISIPDDKAQNTLSEIEDAISNILGKPVAYIMSNYDYQKNLRFSGSNEGYCFVRLTSIGGINRSNNSLLADKITKILSNHLSVKPRRVYIEFRDCSAQNFAFSGSLFGGSRSHHHHHH | soluble
MFQQLSARLQEAIGRLRGRGRITEEDLKATLREIRRALMDADVNLEVTRDFVERVREEALGKQVLESLTPAEVILATVYEALKEALGGEARLPVLKDRNLWFLVGLQGSGKTTTAAKLALYYKGKGRRPLLVAADTQRPAAREQLRLLGEKVGVPVLEVMDGESPESIRRRVEEKARLEARDLILVDTAGRLQIDEPLMGELARLKEVLGPDEVLLVLDAMTGQEALSVARAFDEKVGVTGLVLTKLDGDARGGAALSARHVTGKPIYFAGVSEKPEGLEPFYPERLAGRILGMGDVASLAEKVRAAGLEAEAPKSAKELSLEDFLKQMQNLKRLGPFSEILGLLPGVPQGLKVDEKAIKRLEAIVLSMTPEERKDPRILNGSRRKRIAKGSGTSVQEVNRFIKAFEEMKALMKSLEKKKGRGLM | soluble
MVRIYTLTLAPSLDSATITPQIYPEGKLRCTAPVFEPGGGGINVARAIAHLGGSATAIFPAGGATGEHLVSLLADENVPVATVEAKDWTRQNLHVHVEASGEQYRFVMPGAALNEDEFRQLEEQVLEIESGAILVISGSLPPGVKLEKLTQLISAAQKQGIRCIVDSSGEALSAALAIGNIELVKPNQKELSALVNRELTQPDDVRKAAQEIVNSGKAKRVVVSLGPQGALGVDSENCIQVVPPPVKSQSTVGAGDSMVGAMTLKLAENASLEEMVRFGVAAGSAATLNQGTRLCSHDDTQKIYAYLSR | soluble
MADIPLSGKPRTQVLRWQRQNWVAGLRWEEKQKSVRRAPVQRRGVLNVVLTVKQGKSRLTALGQIEAGWRHQKLYSLAALFSQQCTPNGYGVYQLDDGRQVFLATVKGMPSPMADVIGTPDQIIRARELFLSFNPAPEDGWTIPSSPEFPLSWNTLVGQVSSAQLRFARVAGVSNPLRPYGAGVLSVAALLGGAVWWSRLPEPPVAPVVQELPAPVQDVFKKTPEPVYLPHPWADMPVARHFLNRCQRWRAAVPVSLDRWRLERIRCSAEGLETVYQRQPGGTAAGFAERVKQVFKRTPVFNLVSGGNEGVVFIPWAKFTLQDETAPDAGTQLMQAVSWFQSRQVSFSLSLEHHHHHH | not soluble
MSTKPAAAKTKPSCSEGGDLRVETENGETFITATQRADGTWRKARRVKGGYIPQDEQPKYQNKMQLEATNGRSSVPAGVNPRAMASGSSRKPVSAIKANVCITPQDHFQKKIDLTKKKIEDIEGMESRIASGELVPQPNQVKKIARKQEYLDEIEKLTLEMKKL | not soluble
MNADTADEEITKLLEFLIEQTKDAFEPMRALAVFESFGQLEEDPLDRKTYHYRFHQKIAPNMDSWNNYSIESRIRLMFALAGRVRDNFLESIQSQGTVELDEKNRICEYISNDGTLTLKGDHSDSARWARRITSTTNPTKSAAFAEKFMNFLVEKTKNVVEPVSVGGIYEEFSQIDGFGLSPAAYRTRFHINIVPEINEWNSYSIEERIRLLMALGALVPEDFLERIEAEGTVDLDEKGRILKYSSNDGNLNLDKRNIATANRRNSTAAHRKRSLDRDSESGSAKNARAVKSEPKSKPQSDLHYSSESDTDDVEFVESLPGKPKLEPIDYDYDQYFNRDVSYNNYDQEEVENRNVRLSIASSMPSLESNVIKLNDFLKEVRKFLCFLEISELDELKHQIKESVVQTAGANENLEISDLCTLLDAFFFSINQKTRSTIPNDSTMPVNVFLIKFKCFLLGMESPEFLDLQEKVQRKLDESDITEKILQLSDIQHAVQYLFFSVSH | not soluble
